The values that follow come from patent publication US11071783 (DUKE UNIVERSITY, dated 2021).

Assay [1] concerns the target gp41 of HIV-1 isolate B.BG1168 Env (HIV-1). In words: cell-based or functional assay.
Assay [2] addresses T1, STUB1 (STIP1 homology and U-box containing protein 1) (human, UniProt Q9UNE7 1-303).
T1 construct: also called E3 ubiquitin ligase STIP1 Homology and U-Box Containing Protein 1
T1 sequence (looked up): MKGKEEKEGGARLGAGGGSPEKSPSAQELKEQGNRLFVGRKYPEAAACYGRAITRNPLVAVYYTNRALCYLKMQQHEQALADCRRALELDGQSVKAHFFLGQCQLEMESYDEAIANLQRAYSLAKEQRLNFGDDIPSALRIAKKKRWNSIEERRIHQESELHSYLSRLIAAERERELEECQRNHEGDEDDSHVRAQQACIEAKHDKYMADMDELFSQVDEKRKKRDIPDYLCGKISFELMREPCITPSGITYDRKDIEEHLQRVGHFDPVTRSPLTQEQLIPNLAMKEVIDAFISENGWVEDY
In words: protein microarray of >9400 human proteins.

The molecule 4E10 (antibody) registered a lifetime of neutralization (t1/2), post-attachment TZM-bl assay with B.BG1168 in assay [1] of 28.2 min.

In assay [1], 10E8 (antibody) registered a lifetime of neutralization (t1/2), post-attachment TZM-bl assay with B.BG1168 of 25.6 min.

B1: DH511.2 (antibody, V domains shown)
VH: QVQLVQSGGGLVKPGGSLTLSCSASGFFFDNSWMGWVRQAPGKGLEWVGRIRRLKDGATGEYGAAVKDRFTISRDDSRNMLYLHMRTLKTEDSGTYYCTMDEGTPVTRFLEWGYFYYYMAVWGRGTTVIVSS
VL: DIVMTQSPSSVSASVGDRVTITCRASQNIRDYLNWYQHKPGGSPRLLIYAASTLQTGVPSRFSGSGSGNLFTLTITNLQPEDFATYYCQENYNTIPSLSFGQGTKVDIR
notes: also called DH512; Ab510049
Consider B1, for which the binding result in assay [2] is on record as “binds”.
